Measurements published in patent publication US20250163145A1 (SHIONOGI, published 2025).
Substitutions are numbered along the chain they refer to. Names and notes keep the numbering of the source. Where no end group is shown, it is not given here.

How the values were obtained:
[1] = molecular target: T1, epitope peptide Cys-CE3C long (also: biotin label, site not given here); experiment: ELISA, supernatant IgG on anti-human IgG plate, biotin-peptide + streptavidin-HRP; titer per unit IgG
T1 peptide: CSVNVDKQPKYEYSL
Description: The amount of IgG in the supernatant was determined by the following method. To evaluate the amount of IgG in the supernatant, the culture supernatant was added to an anti-human IgG antibody (manufactured by Jackson) immobilized plate, after reacting at room temperature for 3 hours, washed twice with ELISA wash buffer, and HRP-labeled anti-human IgG antibody (manufactured by Jackson) was reacted at 4° C. overnight. After washing twice with ELISA wash buffer and developing color by adding TMB-Substrate Chromogen (manufactured by Thermo Fisher Scientific), the reaction was stopped with an equal volume of 0.5N sulfuric acid, and the absorbance at 450 nm was measured to calculate (A) the dilution factor of the culture supernatant at which the OD was 1.0.
The titer of IgG in the supernatant against the epitope peptide was determined by the following method. In order to evaluate the titer of IgG in the supernatant against epitope peptides, the culture supernatant was added to an anti-human IgG antibody (manufactured by Jackson) immobilized plate, reacted for 3 hours at room temperature, and then washed twice with ELISA wash buffer, and a biotin-labeled epitope peptide (Cys-CE3C long: SEQ ID NO: 13) and Streptavidin-HRP (manufactured by PIERCE) were added and reacted overnight at 4° C. After washing twice with ELISA wash buffer and developing color by adding TMB-Substrate Chromogen (manufactured by Thermo Fisher Scientific), the reaction was stopped with an equal volume of 0.5N sulfuric acid, the absorbance at 450 nm was measured to calculate (B) the dilution ratio of the culture supernatant at which the OD was 1.0.
The titer (ratio) against the epitope peptide (Cys-CE3C long: SEQ ID NO: 13) per unit IgG amount was calculated as (B)/(A).

[2] = molecular target: T1, epitope peptide Cys-CE3C long; experiment: competitive ELISA, unlabeled vs biotin-labeled peptide, antibody on anti-human IgG plate
Description: A diluted solution of the obtained recombinant humanized antibody, a biotin-labeled immunogen peptide, and Streptavidin-HRP (manufactured by PIERCE) were added to an anti-human IgG antibody-immobilized plate, and reacted overnight at 4° C. […] Next, a recombinant human antibody at the dilution rate, a biotin-labeled immunogen peptide, and Streptavidin-HRP (manufactured by PIERCE) were added. At the same time, a dilution series of unlabeled immunogenic peptide was added and reacted overnight at 4° C. After washing twice with ELISA wash buffer, TMB-Substrate Chromogen (manufactured by Thermo Fisher Scientific) was added to develop color, the reaction was stopped with an equal amount of 0.5N sulfuric acid, and the absorbance at 450 nm was measured. The concentration of the unlabeled peptide which attenuated the signal of the biotin-labeled peptide by half was defined as the affinity (IC50).
A mutant having the heavy chain variable region represented by IGHV7-4-1 Q43R, G44S, N58L, N100D, T100aD, R94P (SEQ ID NO: 33) and the light chain variable region represented by IGKV4-1 (SEQ ID NO: 18) produced in Example 3 was produced. New mutants (h15H11-55 to 67) were produced in which various mutations were introduced into the light chain human framework sequence of the produced mutants, and affinity evaluation was performed on the produced mutants by the method described in Example 5.

B1: humanized 15H11 CDR graft IGKV3-11 / IGHV1-46 (R94P) (antibody, human IgG4 S228P, kappa, V domains shown)
VH: QVQLVQSGAEVKKPGASVKVSCKASGYTFTDYNMHWVRQAPGQGLEWMGRINPKNGVINSNEKFKDRVTMTRDTSTSTVYMELSSLRSEDTAVYYCAPSYYGGNTDAYWGQGTLVTVSS
VL: EIVLTQSPATLSLSPGERATLSCRASESVDNYGISFMNWYQQKPGQAPRLLIYAASSQGSGIPARFSGSGSGTDFTLTISSLEPEDFAVYYCQQSKEFPWTFGGGTKVEIKR
notes: hIgG4Pro/hIgK
[1]
  (B)/(A) titer (ratio) against the epitope peptide per unit IgG amount: 0.12

B2: humanized 15H11 CDR graft IGKV7-3 / IGHV1-2 (R94P) (antibody, human IgG4 S228P, kappa, V domains shown)
VH: B1 VH with T76I, V79A, S85R, E89D
VL: DIVLTQSPASLAVSPGQRATITCRASESVDNYGISFMNWYQQKPGQPPKLLIYAASSQGSGVPARFSGSGSGTDFTLTINPVEANDTANYYCQQSKEFPWTFGGGTKVEIKR
notes: hIgG4Pro/hIgK
[1]
  (B)/(A) titer (ratio) against the epitope peptide per unit IgG amount: 0.22

B3: humanized 15H11 CDR graft IGKV7-3 / IGHV1-46 (R94P) (antibody, human IgG4 S228P, kappa, V domains shown)
VH: B1 VH
VL: B2 VL
notes: hIgG4Pro/hIgK
[1]
  (B)/(A) titer (ratio) against the epitope peptide per unit IgG amount: 0.18

B4: humanized 15H11 CDR graft IGKV7-3 / IGHV1-2 (antibody, human IgG4 S228P, kappa, V domains shown)
VH: B1 VH with T76I, V79A, S85R, E89D, P98R
VL: B2 VL
notes: hIgG4Pro/hIgK
[1]
  (B)/(A) titer (ratio) against the epitope peptide per unit IgG amount: 0.04

B5: humanized 15H11 CDR graft IGKV3-20 / IGHV1-2 (R94P) (antibody, human IgG4 S228P, kappa, V domains shown)
VH: B1 VH with T76I, V79A, S85R, E89D
VL: B1 VL with S81R
notes: hIgG4Pro/hIgK
[1]
  (B)/(A) titer (ratio) against the epitope peptide per unit IgG amount: 0.12

B6: humanized 15H11 CDR graft IGKV7-3 / IGHV1-3 (R94P) (antibody, human IgG4 S228P, kappa, V domains shown)
VH: B1 VH with G44R, M70I, T76A, V79A
VL: B2 VL
notes: hIgG4Pro/hIgK
[1]
  (B)/(A) titer (ratio) against the epitope peptide per unit IgG amount: 0.21

B7: humanized 15H11 CDR graft IGKV3-20 / IGHV1-18 (R94P) (antibody, human IgG4 S228P, kappa, V domains shown)
VH: B1 VH with R72T, V79A, S84R, E89D
VL: B1 VL with S81R
notes: hIgG4Pro/hIgK
[1]
  (B)/(A) titer (ratio) against the epitope peptide per unit IgG amount: 0.13

B8: humanized 15H11 CDR graft IGKV3-20 / IGHV1-46 (R94P) (antibody, human IgG4 S228P, kappa, V domains shown)
VH: B1 VH
VL: B1 VL with S81R
notes: hIgG4Pro/hIgK
[1]
  (B)/(A) titer (ratio) against the epitope peptide per unit IgG amount: 0.09

B9: humanized 15H11 CDR graft IGKV3-20 / IGHV1-2 (antibody, human IgG4 S228P, kappa, V domains shown)
VH: B1 VH with T76I, V79A, S85R, E89D, P98R
VL: B1 VL with S81R
notes: hIgG4Pro/hIgK
[1]
  (B)/(A) titer (ratio) against the epitope peptide per unit IgG amount: 0.04

B10: humanized 15H11 CDR graft IGKV7-3 / IGHV1-18 (R94P) (antibody, human IgG4 S228P, kappa, V domains shown)
VH: B1 VH with R72T, V79A, S84R, E89D
VL: B2 VL
notes: hIgG4Pro/hIgK
[1]
  (B)/(A) titer (ratio) against the epitope peptide per unit IgG amount: 0.24

B11: humanized 15H11 CDR graft IGKV3-20 / IGHV1-3 (R94P) (antibody, human IgG4 S228P, kappa, V domains shown)
VH: B1 VH with G44R, M70I, T76A, V79A
VL: B1 VL with S81R
notes: hIgG4Pro/hIgK
[1]
  (B)/(A) titer (ratio) against the epitope peptide per unit IgG amount: 0.12

B12: h15H11-61 (antibody, human IgG4 S228P, kappa, V domains shown)
VH: QVQLVQSGSELKKPGASVKVSCKASGYTFTDYNMHWVRQAPGRSLEWMGRINPKNGVILSNEKFKDRFVFSLDTSVSTAYLQISSLKAEDTAVYYCAPSYYGGDDDAYWGQGTLVTVSS
VL: DIVMTQSPDSLAVSLGERATINCRASDSVDNYGISFLNWFQQKPGQPPKLLIYAASSQGSGVPDRFSGSGSGTDFTLTINPMEAEDTANYYCQQSKEFPWTFGGGTKVEIKR
notes: hIgG4Pro/hIgK
[2]
  IC50: 790 pM

B13: h15H11-56 (antibody, human IgG4 S228P, kappa, V domains shown)
VH: B12 VH
VL: B12 VL with D27E, L37M, E83Q, T87V, N89V
notes: hIgG4Pro/hIgK
[2]
  IC50: 850 pM

B14: humanized 15H11 CDR graft IGKV4-1 / IGHV7-4-1 (R94P) (antibody, human IgG4 S228P, kappa, V domains shown)
VH: B12 VH with R43Q, S44G, L59N, D104N, D105T
VL: B12 VL with D27E, L37M, F40Y, N80S, P81S, M82L, E83Q, T87V, N89V
notes: hIgG4Pro/hIgK
[1]
  (B)/(A) titer (ratio) against the epitope peptide per unit IgG amount: 0.21

B15: h15H11-58 (antibody, human IgG4 S228P, kappa, V domains shown)
VH: B12 VH
VL: B12 VL with N80S, P81S, E83Q, T87V, N89M
notes: hIgG4Pro/hIgK
[2]
  IC50: 780 pM

B16: h15H11-55 (antibody, human IgG4 S228P, kappa, V domains shown)
VH: B12 VH
VL: B12 VL with D27E, L37M, N80S, P81S, E83Q, T87V, N89M
notes: hIgG4Pro/hIgK
[2]
  IC50: 820 pM

B17: h15H11-63 (antibody, human IgG4 S228P, kappa, V domains shown)
VH: B12 VH
VL: B12 VL with N80S, P81S, E83Q, N89V
notes: hIgG4Pro/hIgK
[2]
  IC50: 640 pM

B18: h15H11-62 (antibody, human IgG4 S228P, kappa, V domains shown)
VH: B12 VH
VL: B12 VL with N80S, P81S, T87V, N89V
notes: hIgG4Pro/hIgK
[2]
  IC50: 730 pM

B19: h15H11-57 (antibody, human IgG4 S228P, kappa, V domains shown)
VH: B12 VH
VL: B12 VL with D27E, L37M, N80S, P81S, E83Q, T87V, N89V
notes: hIgG4Pro/hIgK
[2]
  IC50: 890 pM

B20: h15H11-60 (antibody, human IgG4 S228P, kappa, V domains shown)
VH: B12 VH
VL: B12 VL with N80S, P81S, E83Q, T87V, N89V
notes: hIgG4Pro/hIgK
[2]
  IC50: 790 pM

B21: humanized 15H11 CDR graft IGKV4-1 / IGHV1-2 (R94P) (antibody, human IgG4 S228P, kappa, V domains shown)
VH: B1 VH with T76I, V79A, S85R, E89D
VL: B12 VL with D27E, L37M, F40Y, N80S, P81S, M82L, E83Q, T87V, N89V
notes: hIgG4Pro/hIgK
[1]
  (B)/(A) titer (ratio) against the epitope peptide per unit IgG amount: 0.18

B22: h15H11-59 (antibody, human IgG4 S228P, kappa, V domains shown)
VH: B12 VH
VL: B12 VL with E83Q, T87V, N89V
notes: hIgG4Pro/hIgK
[2]
  IC50: 800 pM

B23: humanized 15H11 CDR graft IGKV3-11 / IGHV7-4-1 (R94P) (antibody, human IgG4 S228P, kappa, V domains shown)
VH: B12 VH with R43Q, S44G, L59N, D104N, D105T
VL: B1 VL
notes: hIgG4Pro/hIgK
[1]
  (B)/(A) titer (ratio) against the epitope peptide per unit IgG amount: 0.18

B24: humanized 15H11 CDR graft IGKV3-20 / IGHV7-4-1 (R94P) (antibody, human IgG4 S228P, kappa, V domains shown)
VH: B12 VH with R43Q, S44G, L59N, D104N, D105T
VL: B1 VL with S81R
notes: hIgG4Pro/hIgK
[1]
  (B)/(A) titer (ratio) against the epitope peptide per unit IgG amount: 0.15

B25: humanized 15H11 CDR graft IGKV4-1 / IGHV1-2 (antibody, human IgG4 S228P, kappa, V domains shown)
VH: B1 VH with T76I, V79A, S85R, E89D, P98R
VL: B12 VL with D27E, L37M, F40Y, N80S, P81S, M82L, E83Q, T87V, N89V
notes: hIgG4Pro/hIgK
[1]
  (B)/(A) titer (ratio) against the epitope peptide per unit IgG amount: 0.03

B26: humanized 15H11 CDR graft IGKV4-1 / IGHV1-3 (R94P) (antibody, human IgG4 S228P, kappa, V domains shown)
VH: B1 VH with G44R, M70I, T76A, V79A
VL: B12 VL with D27E, L37M, F40Y, N80S, P81S, M82L, E83Q, T87V, N89V
notes: hIgG4Pro/hIgK
[1]
  (B)/(A) titer (ratio) against the epitope peptide per unit IgG amount: 0.15

B27: humanized 15H11 CDR graft IGKV4-1 / IGHV1-46 (R94P) (antibody, human IgG4 S228P, kappa, V domains shown)
VH: B1 VH
VL: B12 VL with D27E, L37M, F40Y, N80S, P81S, M82L, E83Q, T87V, N89V
notes: hIgG4Pro/hIgK
[1]
  (B)/(A) titer (ratio) against the epitope peptide per unit IgG amount: 0.13

B28: humanized 15H11 CDR graft IGKV4-1 / IGHV1-18 (R94P) (antibody, human IgG4 S228P, kappa, V domains shown)
VH: B1 VH with R72T, V79A, S84R, E89D
VL: B12 VL with D27E, L37M, F40Y, N80S, P81S, M82L, E83Q, T87V, N89V
notes: hIgG4Pro/hIgK
[1]
  (B)/(A) titer (ratio) against the epitope peptide per unit IgG amount: 0.13

B29: h15H11-64 (antibody, human IgG4 S228P, kappa)
heavy: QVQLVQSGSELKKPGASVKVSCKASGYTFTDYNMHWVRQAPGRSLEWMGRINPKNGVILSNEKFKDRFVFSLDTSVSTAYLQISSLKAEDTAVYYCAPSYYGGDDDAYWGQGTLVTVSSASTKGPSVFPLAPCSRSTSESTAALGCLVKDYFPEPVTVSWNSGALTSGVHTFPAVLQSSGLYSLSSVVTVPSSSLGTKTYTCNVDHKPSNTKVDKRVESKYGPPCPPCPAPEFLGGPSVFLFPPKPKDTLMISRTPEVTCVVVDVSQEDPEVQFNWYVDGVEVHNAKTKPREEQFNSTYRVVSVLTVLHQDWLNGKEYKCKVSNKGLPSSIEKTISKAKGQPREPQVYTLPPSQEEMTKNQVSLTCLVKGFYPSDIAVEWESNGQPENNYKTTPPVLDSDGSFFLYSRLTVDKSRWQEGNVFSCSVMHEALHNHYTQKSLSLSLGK
light: DIVMTQSPDSLAVSLGERATINCRASDSVDNYGISFLNWFQQKPGQPPKLLIYAASSQGSGVPARFSGSGSGTDFTLTISSMQAEDVAVYYCQQSKEFPWTFGGGTKVEIKRTVAAPSVFIFPPSDEQLKSGTASVVCLLNNFYPREAKVQWKVDNALQSGNSQESVTEQDSKDSTYSLSSTLTLSKADYEKHKVYACEVTHQGLSSPVTKSFNRGEC
notes: hIgG4Pro/hIgK
[2]
  IC50: 680 pM
